Reference: US20230135471A1, “UBIQUITIN VARIANTS WITH IMPROVED AFFINITY FOR 53BP1” (Integrated DNA Technologies, Inc., priority 2021, published 2023)

Experiments:
[1] = molecular target: T1, fragment of 53BP1 (a.a. 1221-1718) (Homo sapiens, UniProt Q12888); test: BACTH two-hybrid pooled screen in E. coli, FACS sorting of GFP positive cells and NGS enrichment of i53 amino acid changes; format: cell-based
T1 construct: a fragment of 53BP1 (a.a. 1221-1718); expressed in transfected cells; host or cells: E. coli DHM1
Text: (§1) In order to identify mutations that improve the affinity of i53 for 53BP1, the bacterial adenylate cyclase two-hybrid system (BACTH system) was used to screen for interaction between the two proteins. This method makes use of a B. pertussis calmodulin-dependent adenylate cyclase toxin. The catalytic domain of the toxin can be separated into two fragments (T18 and T25) that are able to associate in the presence of calmodulin but have minimal activity in its absence. If bait and prey proteins fused to T18 and T25 interact, then the catalytic activity is restored and cAMP is produced. In E. coli, cAMP binds to catabolite activator protein (CAP) that acts as a transcriptional activator for several genes. By expressing these fusion proteins in an E. coli strain that lacks endogenous adenylate cyclase and naturally lacks calmodulin, cAMP regulated protein expression can be used as a readout of bait-prey interaction. We engineered the screen so that eGFP will be expressed under the control of a cAMP-regulated promoter. The coding sequence for a fragment of 53BP1 (a.a. 1221-1718) containing the i53 interacting regions and i53 were cloned into T18 and T25 adenylate cyclase expression plasmids such that fusion proteins of each would be expressed. If a Ubv interacts with 53BP1, the T18 and T25 fragments will be brought together, adenylate cyclase activity will be restored, cAMP will be produced, and some portion of the bacterial population will be GFP positive.
A plasmid library was made consisting of Ubv-adenylate cyclase fragment fusion protein plasmids that had on average a single codon within the i53 coding region exchanged for a random NNK codon. Plasmids were transformed into DHM1 cells that lack endogenous adenylate cyclase and contain the plasmid for expression of the 53BP1 fragment fused to one of the adenylate cyclase fragments. Expression of eGFP was used as a readout of bait-prey interaction using fluorescence activated cell sorting (FACS) to sort for GFP positive bacteria. Plasmid DNA was isolated from both the sorted GFP positive bacteria (Positive) and from the original pre-sort population (Input) and was sequenced using NGS. Counts were merged for mutations that result in the same amino acid change using Enrich2 [25]. Enrichment was calculated as enrichment=log 2((read count for an amino acid change in the positive population/read count for an amino acid change in the input)/(synonymous change read count in the positive population/synonymous change read count in the input)). […] For each experiment, DHM1 cells were transformed with the Ubv fusion protein plasmid library in two separate replicates using a gene pulser (Bio-Rad). The i53-adenylate cyclase fragment fusion protein (published i53 peptide, SEQ ID NO:2) plasmid was also introduced separately as a control to estimate selection pressure. Cells were then grown and sorted using FACS and GFP positive cells were collected. Two separate experiments were conducted on separate days using different levels of selection pressure resulting in a different percent GFP positive for the i53 population (i.e. for cells that express published i53 peptide (SEQ ID NO:2) fused to one of the adenylate cyclase fragments).
(§2) There was a high degree of correlation between the two experiments and between replicates (FIG. 2). From these screens, about 230 amino acid changes were identified for which the average enrichment was positive for at least one of the experiments (Table 1). […] To validate that the amino acid changes identified from the pooled screen are reproducible on an individual basis, 24 amino acid changes identified from this screen were introduced individually into the i53 fusion protein plasmid and tested by flow cytometry for their effect on the percent positive population relative to i53 (FIG. 3). There was a strong correlation between the enrichment measured from the pooled screen and the percent reporter positive cells when mutations were screened individually.

[2] = molecular target: 53BP1 (amino acids 1484-1603) fused to MBP (Homo sapiens, UniProt Q12888); test: Biolayer interferometry (BLI) of purified His-tagged Ubvs, 1:1 binding model global fit; details: second experiment, longer association (360 seconds; i53 90 seconds)
Procedure: In order to assess the effect of mutations identified from the two-hybrid screen on the affinity of the Ubvs for 53BP1, Ubvs consisting of the i53 sequence with an N-terminal His tag and short flexible linker plus individual or combinations of screen-identified mutations were purified from E. coli (Table 3). Biolayer interferometry was used to measure the affinity of the purified proteins. Briefly, a purified Ubv was diluted in reaction buffer (1×PBS pH7.4, 0.1 mg/mL BSA, 0.001% Tween 20) to 2 ug/mL. Purified 53BP1 (amino acids 1484-1603) fused to MBP was diluted in reaction buffer to between 20 μM and 10 nM (Table 3, Table 4)). For each Ubv, 8 Ni-NTA sensor tips were hydrated and then loaded with the 2 ug/ml of a Ubv for 30 seconds. Sensor tips were then incubated in reaction buffer for 45 seconds to obtain a baseline. Tips were then moved into either empty buffer or seven different concentrations of purified 53BP1 and the association was measured. Tips were then moved back into reaction buffer and the dissociation was measured. Kon, Koff, and Kd were calculated using a 1:1 binding model using a global fit (Table 4).
A second experiment was performed using CM1 and CM7 using a longer association time (360 seconds) to allow binding to closer approach equilibrium. The BLI response vs 53BP1 fragment concentration was plotted in prism to calculate the Kd using a one site-specific binding nonlinear fit model. An i53 response was plotted on the same graph however the association time used (90 seconds) was shorter due to needing a shorter time to reach equilibrium because of the fast off rate of i53 (FIG. 5B, FIG. 5C, Table 4).

[3] = molecular target: T1, fragment of 53BP1 (a.a. 1221-1718); test: Individual two-hybrid screen of amino acid changes, percent GFP (reporter) positive cells by flow cytometry; format: cell-based
Text: as §1, §2

[4] = test system: HDR at HPRT1 in HEK293 cells that constitutively express HiFi Cas9 / Jurkat cells; test: HDR at HPRT1 by EcoR1 cleavage assay, Ubv delivered as expression plasmid; format: cell-based; details: 154 ng plasmid encoding His-tagged Ubv, versus LbCas12a crRNA plasmid negative control
Procedure: Error bars indicate the standard deviation from two replicates.
In order to test if CM1 is effective at increasing HDR rates when delivered in other forms, plasmid or mRNA encoding CM1 was introduced into cells and the effects on HDR rates were analyzed. […] After 72 hours, genomic DNA was extracted using QuickExtract (Lucigen) and editing was analyzed by PCR amplification of the HPRT1 target site followed by EcoR1 restriction enzyme digestion. Digested product was run on a Fragment Analyzer (AATI).

53BP1 foci = details: introduced into cells; cited from earlier work
HDR = details: plasmid delivery, adeno-associated virus mediated gene delivery, or delivery of mRNA; cited from earlier work
[5] = test system: HDR at HPRT1 in HEK293 cells; test: HDR at HPRT1 by EcoR1 cleavage assay, tag-free versus His-tagged CM1 protein; format: cell-based; details: HEK293, HPRT1, 50 μM to […] ubiquitin variant
Procedure: Data is shown for two biological replicates with lines connecting the means. The dashed line indicates the level of EcoR1 cleavage when no enhancer is used (n=3, standard deviation <2%).
A tag-free version of CM1 (CM1tf, SEQ ID NO:482) was compared with the His6-tagged version of CM1 (SEQ ID NO:241) for their ability to enhance HDR in HEK293 cells as has been described in previous examples. Briefly, 2 uM Cas9 RNP targeting a site in HPRT1 and 2 uM ssDNA donor containing 40 bp homology arms flanking a 6 bp EcoR1 cut site insert sequence were delivered into HEK293 cells with varying amounts of CM1tf (CM1tf, SEQ ID NO:482) or His-tagged CM1 (CM1; SEQ ID NO:241) using Lonza nucleofection. Genomic DNA was isolated after 48 hours, and editing was measured using an EcoR1 cleavage assay.

[6] = test system: HDR at a Cas9 cut site in MET in HEK293 cells; test: HDR (6 nt insert) at MET measured by EcoR1 cleavage; format: cell-based; details: Alt-R HDR donor oligo (small insert), CM1 […], IDT-E 1 μM for 24 hours
Text: (§3) We tested if our ubiquitin variants provided a further benefit over inhibition of common NHEJ pathway targets alone by using the DNA-PK inhibitor IDT enhancer (IDT-E) in combination with CM1 in the context of both large and small inserts (Table 7). […] Without limiting the claimed subject matter to a particular mode or mechanism of action, we hypothesize that our ubiquitin variants targeting 53BP1 will be a useful in facilitating increased HIDR when used in combination with other inhibitors of NHEJ pathway components.

[7] = test system: HDR at a Cas9 cut site in CLTA in K562 cells; test: HDR insertion of 729 bp GFP coding sequence at CLTA, measured by ONT sequencing; format: cell-based; details: dsDNA donor (large insert), Ubv 37.5 μM, IDT-E 1 μM for 24 hours
Procedure: FIG. 12A illustrates use of a ubiquitin variant with high affinity for 53BP1 provides an additional benefit to HDR over the use of a DNA-PK inhibitor alone. […] Ubiquitin variants were delivered alongside 2 μM Cas9 RNP at 37.5 μM final concentration. IDT-E was added to media post nucleofection for 24 hours at 1 μM final dose. Double stranded DNA donor with 200 bp homology arms was delivered at 1.5 μg per nucleofection.
as §3

T1 sequence (Q12888 1221-1718): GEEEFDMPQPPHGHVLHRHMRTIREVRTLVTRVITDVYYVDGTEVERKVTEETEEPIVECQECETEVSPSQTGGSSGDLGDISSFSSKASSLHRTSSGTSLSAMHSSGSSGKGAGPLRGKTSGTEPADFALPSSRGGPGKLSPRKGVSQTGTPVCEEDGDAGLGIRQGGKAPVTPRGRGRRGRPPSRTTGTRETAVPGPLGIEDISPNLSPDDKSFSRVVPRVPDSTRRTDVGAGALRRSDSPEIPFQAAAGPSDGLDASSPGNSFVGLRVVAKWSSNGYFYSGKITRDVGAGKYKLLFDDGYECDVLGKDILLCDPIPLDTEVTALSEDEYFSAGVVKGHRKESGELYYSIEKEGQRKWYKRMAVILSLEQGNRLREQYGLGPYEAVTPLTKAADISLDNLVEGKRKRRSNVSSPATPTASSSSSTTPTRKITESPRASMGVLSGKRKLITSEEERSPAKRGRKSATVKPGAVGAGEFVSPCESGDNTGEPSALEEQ
53BP1 (amino acids 1484-1603) fused to MBP, sequence (Q12888 1484-1603, looked up): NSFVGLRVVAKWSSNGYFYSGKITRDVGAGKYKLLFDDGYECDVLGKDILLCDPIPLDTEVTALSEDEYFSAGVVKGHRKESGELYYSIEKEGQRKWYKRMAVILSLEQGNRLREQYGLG

i53 percent positive ([1]; experiment one)	GFP positive population ([1]; high selection pressure experiment) [%]	GFP positive population ([1]; low selection pressure experiment) [%]	Response ([2]; 53BP1 0.0102 μM)	Response ([2]; 53BP1 0.0511 μM)	Response ([2]; 53BP1 0.1022 μM)	Response ([2]; 53BP1 0.2045 μM)	Response ([2]; 53BP1 1.02 μM)	Response ([2]; 53BP1 5.11 μM)	Response ([2]; 53BP1 20.5 μM)	Percent GFP Positive Rep 1 ([3]; replicate 1, amino acid change in i53 fusion protein plasmid) [%]	Percent GFP Positive Rep 2 ([3]; replicate 2) [%]	Percent GFP Positive Rep 3 ([3]; replicate 3) [%]	Substance	HDR rate [4]	formation of ionizing radiation induced 53BP1 foci (53BP1 foci)	rates of HDR (HDR)	ability to enhance HDR [5]	rate of HDR [6]	rate of HDR [7]
approximately 30%	~3	~17	0.0176	0.0537	0.104	0.1877	0.6247	1.2658	1.954	9	7.6	11.8	i53: published ubiquitin variant inhibitor of 53BP1 (Canny et al.); tested with N-terminal His tag and linker (SEQ ID NO:3) [reference compound]	increase in HDR rates	inhibited the formation ionizing radiation induced 53BP1 foci	improve the rates of HDR	–	–	–
–	–	–	–	–	–	–	–	–	–	–	–	–	CM1tf: tag-free version of CM1	–	–	–	equivalent to that of His-tagged CM1	–	–
–	–	–	0.099	0.3578	0.5715	0.8611	1.5108	2.0067	2.4923	–	–	–	CM7: i53 with K6R, K33H, A46Q, S65P; N-terminal His tag	–	–	–	–	–	–
–	–	–	0.4913	1.3298	1.6825	2.0092	2.5002	2.738	2.9739	–	–	–	CM1: i53 with K6R, T7M, T12M, T14E, K33H, A46Q, S65P, L67K, H68M; N-terminal His tag	larger increase in HDR rate	–	–	–	increase rates of HDR	increase rates of HDR
